Measured values taken from patent US20240301039A1 (NEW YORK UNIVERSITY IN ABU DHABI, published 2024).

What was measured:
[1] = molecular target: T1, SARS-CoV-2 C14S,C23S,C73S NSP9 (triSer-NSP9) (SARS-CoV-2, UniProt P0DTC1 4141-4253); experiment: ELISA signal on INS over uncoated blocked well
T1 construct: also called NSP (dissolved in ammonium acetate); INS (dissolved in DMSO and diluted in PBS)
T1 chain: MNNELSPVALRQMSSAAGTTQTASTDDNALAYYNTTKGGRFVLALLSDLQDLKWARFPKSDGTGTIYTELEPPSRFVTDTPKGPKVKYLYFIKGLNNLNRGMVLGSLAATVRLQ

[2] = molecular target: T1, SARS-CoV-2 C14S,C23S,C73S NSP9 …; experiment: ELISA signal on NSP over uncoated blocked well
[3] = molecular target: T2, SARS-CoV-2 C14S,C23S,C73S NSP9 (triSer-Nsp9) (SARS-CoV-2, UniProt P0DTC1 4141-4253); experiment: ELISA, periplasmic extract; Nsp9 in ammonium acetate (NSP) coated
T2 construct: also called NSP (dissolved in ammonium acetate); INS (dissolved in DMSO/PBS)
T2 chain: T1 chain

[4] = molecular target: T2, SARS-CoV-2 C14S,C23S,C73S NSP9 …; experiment: ELISA, periplasmic extract; Nsp9 in DMSO/PBS (INS) coated
[5] = molecular target: T2, SARS-CoV-2 C14S,C23S,C73S NSP9 …; experiment: ELISA signal on NSP over uncoated blocked blank
[6] = molecular target: T2, SARS-CoV-2 C14S,C23S,C73S NSP9 …; experiment: ELISA signal on INS over uncoated blocked blank

B1: 2INS45 (VHH)
VHH: QVQLQESGGGLVQAGGSLRLSCAASGFTLSSNDMGWYRQAPGKQRELVATITSGLSTNYADSVKGRFTISRDNAKNTVFLQMNSLKIEDTAVYYCEVERGWGPPRDYWGHGTQVTVSS
For B1, the INS/control [1] was 26.9 and the NSP/control [2] was 45.

B2: 2NSP23 (VHH)
VHH: QVQLQESGGGLVQPGGSLRLSCAASGLAFSMYTMGWFRQAPGKEREFVAMIISSGDSTDYADSVKGRFTISRDNGKNTVYLQMDSLKPEDTAVYYCAAPKFRYYFSTSPGDFDSWGQGTQVTVSS
For B2, the “ELISA NSP” value [3] was 4.28, the “ELISA INS” value [4] was 1.72 and the NSP/control [5] was 41.8. The INS/control [6] was 16.8.

B3: 3NSP29 (VHH)
VHH: QVQLQESGGGLVQAGGSLRLSCAASGRTFSRYAMGWFRQAPGKERESVAAINWSGTSIFYANSVEGRFTISRDNAKNTVYLQLNSLKPEDTAVYYCGVVLNGMPYWGRGTQVTVSS
Work on B3 yielded an INS/control [1] of 1.84 and an NSP/control [2] of 3.85.

B4: 3NSP52 (VHH)
VHH: QVQLQESGGGLVQPEGSLRLSCAASGLTFDSYAIGWFRQAPGKEREFVAASIWSGDSGHYTGSVKGRFTISRDNAKNTVDLQMNSLKPEDTAVYYCAASASFLHSANYHMRAKWGYWGQGTQVTVSS
With B4 the “ELISA NSP” value [3] was 2.91, the “ELISA INS” value [4] was 2 and the NSP/control [5] was 34.2. The INS/control [6] was 23.6.

B5: 2INS64 (VHH)
VHH: QVQLQESGGGLVQVGGSLRLSCAASGSILSINAMGWYRQAPGKQRELVAAITSGGSTNYADSVKGRFTISRDNAKNMLYLQMNSLKPEDTAVYYCHVVTGWGPLDWGQGTQVTVSS
B5 showed an INS/control [1] of 26.7 and an NSP/control [2] of 45.2.

B6: 2INS27 (VHH)
VHH: QVQLQESGGGLVQAGGSLRLSCATSGSIFSSAVMGWYRQAPGNERELVALIGSSDTTDYSNSVKGRFTISRDNAKNTAYLRMNSLKPEDTAVYYCTAVKYGLGGFVYWGQGTQVTVSS
In the case of B6, the “ELISA NSP” value [3] is reported as 2.77, the “ELISA INS” value [4] is reported as 3 and the NSP/control [5] is reported as 28.9. For the same binder, the INS/control [6] was 31.3.

B7: 2INS69 (VHH)
VHH: QVQLQESGGGLVRAGDSLRLSCAVSGRTFSSVAMGWFRQAPGKEREFVAFISGSTGSVTYYADSVKGRFAISRDNAKNTVYLQMNSLKPEDTAVYDCAAKFTGTFNYQGLYDYWGQGTQVTVSS
For B7, the INS/control [1] was 14.1 and the NSP/control [2] was 13.8.

B8: 2INS61 (VHH)
VHH: QVQLQESGGGLVQAGGSLRLSCAASGSIFSINTMGWYRQAPGKQRELVAAITSGGSTNYADSVKGRFTISRDNAKNTVHLQMNSLKPEDTAVYYCNVVEGWGPPVGYWGQGTQVTVSS
In the case of B8, the “ELISA NSP” value [3] is reported as 5.36, the “ELISA INS” value [4] is reported as 1.84 and the NSP/control [5] is reported as 8.02. It also gave an INS/control [6] of 2.75.

B9: 3INS39 (VHH)
VHH: QVQLQESGGGLVQAGGSLRVSCEVSGIMFGINTMGWYRQAPGKQRELVAHITSSGSTNYADSVKGRFTISRDNAKKTVYLQMNSLKPEDTAVYYCNVVAGWGPPPGYWGQGTQVTVSS
For B9, the “ELISA NSP” value [3] was 4.07, the “ELISA INS” value [4] was 2.49 and the NSP/control [5] was 4.42. It also gave an INS/control [6] of 2.7.

B10: 3NSP56 (VHH)
VHH: QVQLQESGGGLVQAGGSLRLSCAASGRTFSRYAMGWFRQAPGKERESVAAINWSGTSIFYANSVEGRFTISRDNAKNTVYLQLNSLKPEDTAVYYCAADLVRNYRLGWGDGVYDHYGQGTQVTVSS
For B10, the INS/control [1] was 2.61 and the NSP/control [2] was 5.47.

B11: 2NSP90 (VHH)
VHH: QVQLQESGGGLVQTGDSLRLSCAVSGRTFSTYSVGWFRQAPGKEREFVALRWSGGTTYYADSVVGRFTVSRDNAKNTVYLEMNSLKPEDTAVYYCAADRGSGSYSPTYRWDYWGQGTQVTVSS
B11 was tested, and the “ELISA NSP” value [3] was 4.78, the “ELISA INS” value [4] was 1.98 and the NSP/control [5] was 50.8. For the same binder, the INS/control [6] was 21.

B12: 3NSP78 (VHH)
VHH: QVQLQESGGGLVQAGGSLRLSCAASGRAFSSYVMGWFRQAPGKEREFVAAIHWTGAATVYVDSVKGRFAISRHNAKNTVYLEMNSLKPEDTAVYYCAADPSGSYWPPKRYDYWGQGTQVTVSS
B12 gave an INS/control [1] of 28.6 and an NSP/control [2] of 47.2.
